The target in data set [1] is T1, Bse634I R226A (UniProt Q8RT53 1-293, R226A).
T1 sequence: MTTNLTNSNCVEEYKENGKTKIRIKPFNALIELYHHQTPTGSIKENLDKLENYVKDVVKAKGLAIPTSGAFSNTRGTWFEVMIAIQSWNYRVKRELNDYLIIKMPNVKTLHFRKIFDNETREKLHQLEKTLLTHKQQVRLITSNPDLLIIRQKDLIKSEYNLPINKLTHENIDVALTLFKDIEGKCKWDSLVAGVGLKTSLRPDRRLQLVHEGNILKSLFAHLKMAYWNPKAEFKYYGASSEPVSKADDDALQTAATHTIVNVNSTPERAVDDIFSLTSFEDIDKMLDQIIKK
Description: crystal structure.

Data set [2] has as its target T1, Bse634I R226A. Description: crystal structure. This is another data set of the same source.
For data set [3], the target named is T2, Bse634I wt (UniProt Q8RT53 1-293).
T2 sequence: T1 sequence with A226R
Nature of the data set: EMSA.

The target of data set [4] is T2, Bse634I wt. Nature of the data set: EMSA. This is another data set of the same source. Background: In EMSA bound probe runs differently from free probe, usually more slowly.
Data set [5] concerns the target T1, Bse634I R226A. Nature of the data set: crystal structure. The source holds these as a separate data set.

Positions count from the first letter of the chain named. Like-named read-outs stand apart in the source and are kept apart here.

B1: AT-2 (dsDNA)
DNA 1: TTCGACCGGTCGA
DNA 2: TTCGACCGGTCGA
Take B1: in data set [1], the binding result is reported as “binds”.

B2: GC-1 (dsDNA)
DNA 1: TCGCGCCGGCGCG
DNA 2: TCGCGCCGGCGCG
As to B2, the binding result in data set [2] is reported as “binds”.

B3: GC (dsDNA)
DNA 1: CGCACGATCGCCGGCGATGCACGC
DNA 2: GCGTGCATCGCCGGCGATCGTGCG
On to B3, for which the binding result in data set [3] is on record as “binds”.

B4: AT (dsDNA)
DNA 1: CGCACGATCACCGGTGATGCACGC
DNA 2: GCGTGCATCACCGGTGATCGTGCG
On to B4, for which the binding result in data set [3] is listed as “binds”.

B5: IC (dsDNA)
DNA 1: CGCACGATCGCCGGCGATGCACGC
DNA 2: GCGTGCATCGCCGGCGATCGTGCG
modifications: inosine for G at position 10 of each strand (written as G)
Consider B5, for which the binding result in data set [4] is “binds”.

B6: AT-1 (dsDNA)
DNA 1: TCGCACCGGTGCG
DNA 2: TCGCACCGGTGCG
For the molecule B6, the binding result in data set [5] is recorded as “binds”.

B7: AU (dsDNA)
DNA 1: CGCACGATCACCGGUGATGCACGC
DNA 2: GCGTGCATCACCGGUGATCGTGCG
modifications: dU for T at position 15 of each strand
Consider B7, for which the binding result in data set [4] was “binds”.

(Values after publication PMC3413111.)
